Experiments:
[1] = target: V-Csn (Viral Chitosanase), soil viral GH75 chitosanase AMG product (soil virus (predicted Proteobacteria phage; forest soil metagenome)); assay: SEC; size exclusion chromatography of purified V-Csn in solution; conditions of this observation are not given (gel filtration in the purification used a Superdex HiLoad 26/60 column)
[2] = target: T1, V-Csn (uncultured phage, UniProt Z9RE59BL32); assay: X-ray crystal structure of co-crystal, […] A; assay type: binding; settings: co-crystallised with about 5 mM chitohexaose, 0.2 M ammonium sulfate, 0.1 M sodium acetate pH 4.6, 30% MMePEG2000; active-site cleft; three of six GlcN residues modelled
T1 construct: model residues 1-224 plus linker GHS; dimer in solution

Compound	stoichiometry N [1]	X-ray crystal structure of co-crystal, 1.30 A [2]
V-Csn (Viral Chitosanase), soil viral GH75 chitosanase AMG product (enzyme)	2	–
N[C@H]1[C@H](O[C@H]2[C@H](O)[C@@H](N)[C@H](O[C@H]3[C@H](O)[C@@H](N)[C@H](O[C@H]4[C@H](O)[C@@H](N)[C@H](O[C@H]5[C@H](O)[C@@H](N)[C@H](O[C@H]6[C@H](O)[C@@H](N)C(O)O[C@@H]6CO)O[C@@H]5CO)O[C@@H]4CO)O[C@@H]3CO)O[C@@H]2CO)O[C@H](CO)[C@@H](O)[C@@H]1O (some centres unmarked) [chitohexaose]	–	gave a complex with the E157Q mutant only

From article PMC9485262, “Structural characterization of a soil viral auxiliary metabolic gene product – a functional chitosanase” (Nature Communications, 2022)
